B1: seleno-methionine substituted AcrF3 (anti-CRISPR protein encoded by gene 35 from phage JBD5) (natural protein)
chain: MSNTISDRIVARSVIEAARFIQSWEDADPDSLTEDQVLAAAGFAARLHEGLQATVLQRLVDESNHEEYREFKAWEEALLNADGRVASSPFADWGWWYRIANVMLATASQNVGVTWGSRVHGRLMAIFQDKFKQRYEEQA
modifications: seleno-methionine substituted
B2: AcrF3 (as in the PaeCas3-AcrF3 complex) (natural protein, phage JBD5)
chain: B1 chain

Columns and labels:
crystal structure = molecular target: the molecule itself; assay: crystal structure
cryo-EM structure = molecular target: the molecule itself; assay: cryo-EM structure

Protein	stoichiometry N (crystal structure)	stoichiometry N (cryo-EM structure)
B1	2	–
B2	–	2

Reference: paper PMC5113301 (Cell Research, 2016)
